Reference: US7919262B2, “14-3-3 proteins for diagnosis of Parkinson's disease” (The UAB Research Foundation, priority 2007, dated 2011)

B1: 14-3-3θ: 14-3-3 polypeptide θ isoform, overexpressed from V5/His-tagged pcDNA3.1 vector (or as transgene in C. elegans) (protein, UniProt P27348 1-245, looked up)
14-3-3 protein theta: MEKTELIQKAKLAEQAERYDDMATCMKAVTEQGAELSNEERNLLSVAYKNVVGGRRSAWRVISSIEQKTDTSDKKLQLIKDYREKVESELRSICTTVLELLDKYLIANATNPESKVFYLKMKGDYFRYLAEVACGDDRKQTIDNSQGAYQEAFDISKKEMQPTHPIRLGLALNFSVFYYEILNNPELACTLAKTAFDEAIAELDTLNEDSYKDSTLIMQLLRDNLTLWTSDSAGEECDAAEGAEN
modifications: V5/His tag
B2: 14-3-3ζ: 14-3-3 polypeptide ζ isoform, overexpressed from expression vector (protein, UniProt P63104 1-245, looked up)
14-3-3 protein zeta/delta: MDKNELVQKAKLAEQAERYDDMAACMKSVTEQGAELSNEERNLLSVAYKNVVGARRSSWRVVSSIEQKTEGAEKKQQMAREYREKIETELRDICNDVLSLLEKFLIPNASQAESKVFYLKMKGDYYRYLAEVAAGDDKKGIVDQSQQAYQEAFEISKKEMQPTHPIRLGLALNFSVFYYEILNSPEKACSLAKTAFDEAIAELDTLSEESYKDSTLIMQLLRDNLTLWTSDTQGDEAEAGEGGEN

How the values were obtained:
[1] = tested on: naïve M17 cells; experiment: Rotenone toxicity after transient transfection, scoring of apoptotic nuclei; type: cell-based, human; details: rotenone 0, 0.2 or 1 μM for 24 hours, vs control transfection
Description: FIGS. 6A-D show M17 cells overexpressing 14-3-3θ are resistant to rotenone treatment. Cell lines stably-transfected with either 14-3-3θ or empty vector were treated with varying concentrations of rotenone (0-25 μM) for 24 hours (FIG. 6A), 30 hours (FIG. 6B), or 48 hours (FIG. 6C). Cell death was assayed by LDH release into the culture media. LDH release into media was normalized to total LDH release for each well. The 14-3-3θ-overexpressing line was more resistant to rotenone in a dose-dependent manner compared to control stable cells at all time points tested. […] Rater was blind to experimental condition. n=8 for each experimental condition. *p<0.05, ***p<0.001 (Bonferroni's multiple comparison test).
The effects of 14-3-3θ overexpression on rotenone toxicity was also examined by transient transfection of this isoform into naïve M17 cells. Briefly, M17 cells were transfected with V5-tagged 14-3-3θ isoform or enhanced yellow fluorescent protein (EYFP) (control) and were treated with rotenone for 24 hours at 0, 0.2, or 1 μM rotenone. Because of the relatively low rates of transfection, after the treatment period cells were fixed and stained against V5 (or GFP in the case of control), followed by Hoechsht 33342 staining. With the rater blind to experimental condition, the nuclei of cells that stained for V5 or GFP were scored as normal or apoptotic.

[2] = tested on: Transgenic C. elegans worms that overexpress human wildtype α-syn; experiment: Dopaminergic neuron loss in α-syn transgenic worm model; type: in vivo; details: human 14-3-3θ overexpressed along with α-syn
Description: FIG. 10. Overexpression of 14-3-3θ protects against dopaminergic cell loss in the α-syn transgenic C. elegans worm model. Double transgenic worms were created in which the 14-3-3θ isoform was overexpressed along with α-syn.
We turned to the C. elegans model of PD, in which human wildtype α-syn is overexpressed. […] Double transgenic worms were created in which the 14-3-3θ isoform was overexpressed along with α-syn. […] In contrast, 18.9% of worms that overexpressed human 14-3-3θ along with α-syn had all six dopaminergic neurons at seven days (FIG. 10; p<0.001 compared to α-syn worms). 12.9% of worms had the full anterior complement of dopaminergic neurons at 10 days (FIG. 10; p<0.00001).

[3] = tested on: H4 cells; experiment: α-syn toxicity assay, adenylate kinase released into the media; type: cell-based; details: co-transfected with wildtype α-syn; 24 hours after transfection; vs empty vector
Description: Briefly, H4 cells were transfected with wildtype α-syn and each of the 14-3-3 polypeptide isoforms or empty vector controls as discussed above. Twenty-four hours after transfection, cell death was assayed by adenylate kinase activity in the media (n=4, *p<0.05, **p<0.01, ***p<0.001).
Primers against each of the human 14-3-3 isoforms were designed using Primer3. Primers against 14-3-3β (NM_018753) were 5′ […] 3′ (forward; SEQ ID NO. 9) and 5′ […] 3′ (reverse; SEQ ID NO. 10). Primers against 14-3-3ε (NM_009536) were 5′ […] 3′ (forward; SEQ ID NO. 11) and 5′ […] 3′ (reverse; SEQ ID NO. 12). Primers against 14-3-3γ (NM_018871) were 5′ […] 3′ (forward; SEQ ID NO. 13) and 5′ […] 3′ (reverse; SEQ ID NO. 14). Primers against 14-3-3η (NM_011738) were 5′ […] 3′ (forward; SEQ ID NO. 15) and 5′ […] 3′ (reverse; SEQ ID NO. 16). Primers against 14-3-3θ (NM_011739) were 5′ […] 3′ (forward; SEQ ID NO. 17) and 5′ […] 3′ (reverse; SEQ ID NO. 18). Primers against 14-3-3σ (NM_018754) were 5′ […] 3′ (forward; SEQ ID NO. 19) and 5′ […] 3′ (reverse; SEQ ID NO. 20). Primers against 14-3-3ζ(NM_011740) were 5′ […] 3′ (forward; SEQ ID NO. 21) and 5′ […] 3′ (reverse; SEQ ID NO. 22). Primers against GAPDH were 5′ tggtgaagcaggeatctga 3′ (forward; SEQ ID NO. 23) and 5′ […] […] All cells stained for α-syn were scored as positive or negative for α-syn aggregates, with the rater blind to experimental condition. • α-syn toxicity assay H4 cells were transfected with α-syn and either empty vector control or a 14-3-3 isoform using Superfect transfection reagent (Qiagen). 24 hours after transfection, toxicity was measured by the amount of adenylate kinase released into the media using the ToxiLight™ kit (Cambrex). • Creation of stable cell lines Each 14-3-3 isoform was subcloned into the mammalian expression vector mcDNA3.1/V5-His (Invitrogen). […] Protein concentrations of supernatants were determined by the bicinchoninic acid assay (BCA; Pierce, Rockford, Ill.). […]

Molecule | cell death (apoptotic nuclei) in response to rotenone treatment [1] | worms with the full anterior complement of dopaminergic neurons ([2]; 10 days) [%] | worms with all six anterior dopaminergic neurons present ([2]; seven days) [%] | effect on α-syn dependent cell death (adenylate kinase activity in the media) [3]
B1 | decreased cell death | 12.9 | 18.9 | protective effects
B2 | – | – | – | protective effects
